According to publication PMC2647517 (Biochemistry, 2008):
Positions count from the first letter of the chain named. Names and notes keep the numbering of the source. Read-outs that look alike come from different tables or passages of the source.

Key:
SEC [1] = target: the molecule itself; assay: SEC
SEC + cross-linking [2] = target: the molecule itself; assay: SEC + cross-linking
SEC + cross-linking [3] = target: the molecule itself; assay: SEC + cross-linking; remark: listed apart in the source
cross-linking = target: the molecule itself; assay: cross-linking
[4] = target: the molecule itself
SEC [5] = target: the molecule itself; assay: SEC; remark: listed apart in the source

B1: Escherichia coli manganese superoxide dismutase, wild type (apoprotein) (enzyme, UniProt P00448 1-206, looked up)
chain: MSYTLPSLPYAYDALEPHFDKQTMEIHHTKHHQTYVNNANAALESLPEFANLPVEELITKLDQLPADKKTVLRNNAGGHANHSLFWKGLKKGTTLQGDLKAAIERDFGSVDNFKAEFEKAAASRFGSGWAWLVLKGDKLAVVSTANQDSPLMGEAISGASGFPIMGLDVWEHAYYLKFQNRRPDYIKEFWNVVNWDEAAARFAAKK
- stoichiometry N (SEC [1]): 2

B2: EC MnSOD S126C, disulfide form (enzyme, Escherichia coli, UniProt P00448 1-206, looked up)
chain: B1 chain with S127C
modifications: disulfide between Cys126 of the two subunits
- stoichiometry N (SEC + cross-linking [2]): 2
- stoichiometry N (SEC + cross-linking [3]): 2

B3: EC MnSOD Y174C, disulfide form (enzyme, Escherichia coli, UniProt P00448 1-206, looked up)
chain: B1 chain with Y175C
modifications: disulfide between Cys174 of the two subunits
- stoichiometry N (cross-linking): 2

B4: EC MnSOD H171A (enzyme, Escherichia coli, UniProt P00448 1-206, looked up)
chain: B1 chain with H172A
- stoichiometry N [4]: 2

B5: EC MnSOD E170C, disulfide form (enzyme, Escherichia coli, UniProt P00448 1-206, looked up)
chain: B1 chain with E171C
modifications: disulfide between Cys170 of the two subunits
- stoichiometry N (cross-linking): 2

B6: EC MnSOD (S126C/Y174C), double disulfide form (enzyme, Escherichia coli, UniProt P00448 1-206, looked up)
chain: B1 chain with S127C, Y175C
modifications: disulfides between Cys126 and Cys126 and between Cys174 and Cys174 of the two subunits
- stoichiometry N (cross-linking): 2

B7: EC MnSOD S126C, free thiol form (enzyme, Escherichia coli, UniProt P00448 1-206, looked up)
chain: B1 chain with S127C
modifications: Cys126 as free thiol (0.99 mol SH/mol protein)
- stoichiometry N (SEC [5]): 2
